Measured values from patent US20040048242.

Biological target: T1, GST-pRb (non-acetylated), P06400
T1 chain: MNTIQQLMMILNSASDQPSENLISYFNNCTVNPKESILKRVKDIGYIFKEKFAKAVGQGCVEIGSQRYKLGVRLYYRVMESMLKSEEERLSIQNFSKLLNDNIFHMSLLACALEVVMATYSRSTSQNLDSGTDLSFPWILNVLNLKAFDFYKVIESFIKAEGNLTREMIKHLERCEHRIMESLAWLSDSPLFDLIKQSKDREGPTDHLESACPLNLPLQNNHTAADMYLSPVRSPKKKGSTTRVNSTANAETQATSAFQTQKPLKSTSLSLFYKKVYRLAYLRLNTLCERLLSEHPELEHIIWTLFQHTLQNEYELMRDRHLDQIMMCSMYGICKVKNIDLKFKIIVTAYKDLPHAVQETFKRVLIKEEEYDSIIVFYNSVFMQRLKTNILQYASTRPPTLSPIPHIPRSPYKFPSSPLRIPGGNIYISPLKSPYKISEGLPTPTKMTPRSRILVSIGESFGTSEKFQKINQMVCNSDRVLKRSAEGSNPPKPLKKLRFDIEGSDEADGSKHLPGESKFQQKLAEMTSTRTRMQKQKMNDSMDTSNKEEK

B1: his-tagged p300 1195-1673 (protein)
chain: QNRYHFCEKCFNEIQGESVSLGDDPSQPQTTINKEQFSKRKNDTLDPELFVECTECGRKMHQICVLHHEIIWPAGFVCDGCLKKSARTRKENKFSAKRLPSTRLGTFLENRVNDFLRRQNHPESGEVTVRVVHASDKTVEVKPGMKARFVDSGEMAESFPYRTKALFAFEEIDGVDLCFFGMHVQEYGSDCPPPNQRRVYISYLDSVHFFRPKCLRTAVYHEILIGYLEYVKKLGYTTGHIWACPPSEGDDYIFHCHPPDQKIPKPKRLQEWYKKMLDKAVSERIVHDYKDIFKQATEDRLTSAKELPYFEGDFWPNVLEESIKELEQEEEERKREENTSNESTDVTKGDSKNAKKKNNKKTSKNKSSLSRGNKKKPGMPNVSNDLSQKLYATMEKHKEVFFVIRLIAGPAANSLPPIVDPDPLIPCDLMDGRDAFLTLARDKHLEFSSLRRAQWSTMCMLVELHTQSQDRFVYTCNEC
B1 was tested, and the “in vitro acetylation of GST-pRb with 14C acetyl CoA” value was “GST-pRb could be acetylated by p300”.
